Source: the supplement of paper PMC10567573

B1: ZNF449 (parent)
chain: RIHSGEEPHKCPECGKRFLRSSDL
B2: PPFIA4 (parent)
chain: VMTLPSDLRKHRRKLLSPVSREEN

Variants of: B1
Assay: protein stability index of a GFP-peptide fusion (GPS, HEK-293T) (PSI 1-6); higher = more stable
Settings: c terminus: a fixed tail appended
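Further: lentivirally expressed fusions sorted by FACS into six bins by GFP to DsRed ratio, PSI derived from sequencing read proportions per bin multiplied by bin number.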

Protein stability index of substitutions, site by site:
I2: C 5.05; D 4.06; P 3.57; K 3.43; A 3.42
R1: W 2.28; F 1.38; D 4.13; G 3.74
H9: I 4.09; K 3.83; E 3.78; G 2.99; D 3.5
S21: D 4.25; A 3.31; Y 3.22; H 3.44; C 3.69; T 3.56; Q 2.75
H3: C 3.76; E 3.48; F 2.63; A 3.48
E6: I 3.09; F 2.95; R 3.24
L19: D 3.88; K 4.04; P 3.54; M 4.05; C 4.48
P12: L 3.23; H 3.24; V 3.5; C 3.32
C14: V 4.21; T 4.69
L24: P 4.12; K 3.96; G 3.82
R17: V 3.17; H 4.23; C 3.74; T 3.97; W 3.97; Q 3.63
E7: C 4.79; K 2.46; V 2.96; T 3.04; G 2.81
R20: D 3.47; P 3.99; Y 2.86; K 3.25; C 3.88; I 2.91
C11: N 4.57; L 4.11; V 4.19; A 4.32; S 3.72
P8: K 2.51; C 3.19; F 2.44; Q 4.29; W 3.72
G5: D 3.74; H 4.07; Y 3.56; T 4.24; E 3.62
S22: T 3.05; G 3.74; P 3.5; H 3.56
F18: K 4.33; M 3.32; I 3.22
K10: W 3.72; Q 3.39; P 3.7; S 3; R 3.55; E 3.57; T 3.82
K16: Y 3.77; L 2.78; G 3.13
D23: N 2.8; Y 1.72; H 3.41; Q 1.86
G15: I 3.6; Q 3.85; C 3.28; M 3.88
E13: T 3.41; H 3.34; L 3.38; R 2.84; G 3.21; N 3.43

Variants of: B2
Assay: as above
Settings: c terminus: a fixed tail appended

Protein stability index of substitutions, site by site:
N24: F 2.44; Q 4.05; K 4.04; E 4.31; S 3.91; P 3.45; L 2.94; C 3.33; Y 3.02; A 4.02; D 4.33; I 3.34
K14: F 3.54; Y 3.1; A 3.61; C 2.98; L 3.48; V 3.13; Q 3.94; H 3.81; M 3.65; S 3.79; P 4.01
R13: C 3.49; G 3.91; N 3.95; E 4.59; M 3.12; K 3.5; A 4.11; Y 3.63; Q 4.27
R12: E 4.58; D 4.68; T 4.21; M 3.47; F 3.36; Q 4.29; C 3.34; Y 3.35; H 3.92
L16: Q 3.75; V 3.84; H 3.89; G 4.43; D 4.08; A 4.34
V1: C 3.81; D 4.35; I 3.55; E 4.2; K 3.81; S 4.27; G 3.31; N 3.62; M 3.89; H 4.25
M2: K 3.82; C 3.65; D 4.71; W 3.72; S 3.69; L 3.48; Y 3.15; V 3.46; A 4.31; N 3.84; T 4.46; I 3.12; H 4.02
L15: E 4.22; R 3.92; Q 3.83; M 4.08; W 3.5; A 4.08; T 3.9
H11: M 3.49; D 4.37; K 3.44; A 3.42; F 3.46; G 3.79; R 3.99; V 3.35
R21: M 4.09; F 3.54; T 4.12; Y 3.34; C 4.06; N 3.85; Q 4.36; A 4.18; V 3.91; I 3.9
S20: L 3.44; K 3.92; V 3.23; Y 2.98; Q 4.17; N 3.91; R 3.84; T 3.75; P 3.67; H 3.18; W 2.63
E22: G 3.16; F 2.44; P 2.85; C 2.8; D 3.5; V 3.86; Q 3.19; R 3.66; T 3.22; Y 2.93; K 3.67; N 3.27
V19: F 2.85; W 2.52; Q 4.31; E 4.21; R 3.69; L 3.43; C 3.17; S 4.21; D 4.57; M 2.98
E23: T 3.04; A 3.04; R 3.06; C 2.88; D 3.52; K 3.72; Y 2.96; N 3.14; F 2.59; M 3.29
S17: E 3.86; T 4.23; V 3.53; I 3.45; Q 4.08; F 4.01; D 4.29; M 3.48
K10: D 4.32; C 3.52; T 4.02; Q 4.29; F 2.75; A 4.32; R 3.95; P 4.05
L4: N 4.23; Y 3.45; C 4.31; I 3.42; A 4.27; G 4.45; H 4.08; V 3.77
L8: R 4.15; T 4.24; H 3.9; Y 3.24; N 3.74; K 4.14; D 4.28; W 3.22; S 4.73; G 3.56; P 3.84; M 4.01; I 4.07
D7: Y 3.2; T 3.24; S 2.98; E 3.46; N 3.39; F 2.57; H 3.15; G 3.62; I 2.72
P18: C 3.51; H 3.52; D 4.7; M 3.83; F 2.83
S6: L 3.38; K 3.24; E 3.85; P 3.97; N 3.51; Y 3.5; A 3.93; T 3.52
T3: F 1.74; G 3.99; N 2.82; P 3.51; L 2.32; E 3.51; I 2.65; Q 2.85; C 3.56
R9: Q 4.49; E 4.11; W 3.49; C 4.01; I 3.69; V 3.82; L 3.59; D 4.1; N 4.18; H 3.9; K 4
P5: L 2.48; W 2.25; A 3.06; F 2.1; T 3.67; N 3.47; C 2.63; M 2.47; V 2.76; I 2.12; Q 3.4; D 4.37
